# From patent US20200199241A1 (Chugai, published 2020)
# Positions count from the first letter of the chain named.
# B1: IgG1-F679 (antibody)
# heavy: QVQLQESGPGLVKPSETLSLTCAVSGHSISHDHAWSWVRQPPGEGLEWIGFISYSGITNYNPSLQGRVTISRDNSKNTLYLQMNSLRAEDTAVYYCARSLARTTAMDYWGEGTLVTVSSASTKGPSVFPLAPSSKSTSGGTAALGCLVKDYFPEPVTVSWNSGALTSGVHTFPAVLQSSGLYSLSSVVTVPSSSLGTQTYICNVNHKPSNTKVDKKVEPKSCDKTHTCPPCPAPELLGGPSVFLFPPKPKDTLYISRTPEVTCVVVDVSHEDPEVKFNWYVDGVEVHWAKTKPREEQYNSTYRVVSVLTPLHQDWLNGKEYKCKVSNKALPAPIEKTISKAKGQPREPQVYTLPPSRDELTKNQVSLTCLVKGFYPSDIAVEWESNGQPENNYKTTPPVLDSDGSFFLYSKLTVDKSRWQQGNVFSCSVMHEALHYHYTQKSLSLSP
# light: not shown
# notes: EU numbering; copies: 2 + 2
# B2: IgG1-F688 (antibody)
# heavy: B1 heavy with W288N, K290L
# light: not shown
# notes: EU numbering; copies: 2 + 2
# B3: IgG1-F697 (antibody)
# heavy: B1 heavy with S241K, W288N, N327G
# light: not shown
# notes: EU numbering; copies: 2 + 2
# B4: IgG1-F685 (antibody)
# heavy: B1 heavy with W288N, K290G
# light: not shown
# notes: EU numbering; copies: 2 + 2
# B5: IgG1-F738 (antibody)
# heavy: B1 heavy with P240D, W288N, T309P, P310V
# light: not shown
# notes: EU numbering; copies: 2 + 2
# B6: IgG1-F721 (antibody)
# heavy: B1 heavy with W288N, T309Q, Q313A, M430I
# light: not shown
# notes: EU numbering; copies: 2 + 2
# B7: IgG1-F692 (antibody)
# heavy: B1 heavy with W288N, K290Q
# light: not shown
# notes: EU numbering; copies: 2 + 2
# B8: IgG1-F699 (antibody)
# heavy: B1 heavy with S241K, W288E, T309Q, P310V, Q313A
# light: not shown
# notes: EU numbering; copies: 2 + 2
# B9: IgG1-F740 (antibody)
# heavy: B1 heavy with W288N, T309P, P310V, Q313H
# light: not shown
# notes: EU numbering; copies: 2 + 2
# B10: IgG1-F691 (antibody)
# heavy: B1 heavy with W288N, K290P
# light: not shown
# notes: EU numbering; copies: 2 + 2
# B11: IgG1-F730 (antibody)
# heavy: B1 heavy with Y254M, W288N, T309Q, P310V, Q313A
# light: not shown
# notes: EU numbering; copies: 2 + 2
# B12: IgG1-F693 (antibody)
# heavy: B1 heavy with W288N, K290R
# light: not shown
# notes: EU numbering; copies: 2 + 2
# B13: IgG1-F729 (antibody)
# heavy: B1 heavy with Y254M, W288N, T309A, P310V, Q313A
# light: not shown
# notes: EU numbering; copies: 2 + 2
# B14: IgG1-F683 (antibody)
# heavy: B1 heavy with W288N, K290E
# light: not shown
# notes: EU numbering; copies: 2 + 2
# B15: IgG1-F732 (antibody)
# heavy: B1 heavy with Y254M, W288N, T309Q, P310V, Q313H
# light: not shown
# notes: EU numbering; copies: 2 + 2
# B16: IgG1-F717 (antibody)
# heavy: B1 heavy with P240D, W288N, P310V, N327I
# light: not shown
# notes: EU numbering; copies: 2 + 2
# B17: IgG1-F733 (antibody)
# heavy: B1 heavy with W288N, P310V, L330E
# light: not shown
# notes: EU numbering; copies: 2 + 2
# B18: IgG1-F694 (antibody)
# heavy: B1 heavy with W288N, K290V
# light: not shown
# notes: EU numbering; copies: 2 + 2
# B19: IgG1-F695 (antibody)
# heavy: B1 heavy with W288N, K290W
# light: not shown
# notes: EU numbering; copies: 2 + 2
# B20: IgG1-F710 (antibody)
# heavy: B1 heavy with P240D, W288E, T309Q, P310V, Q313A, M430I
# light: not shown
# notes: EU numbering; copies: 2 + 2
# B21: IgG1-F707 (antibody)
# heavy: B1 heavy with W288E, T309Q, Q313A
# light: not shown
# notes: EU numbering; copies: 2 + 2
# B22: IgG1-F723 (antibody)
# heavy: B1 heavy with P240D, W288N, P310V, L330D
# light: not shown
# notes: EU numbering; copies: 2 + 2
# B23: IgG1-F712 (antibody)
# heavy: B1 heavy with P240D, W288N, T309Q, P310V, Q313A
# light: not shown
# notes: EU numbering; copies: 2 + 2
# B24: IgG1-F713 (antibody)
# heavy: B1 heavy with P240D, W288E, T309Q, P310V, Q313A
# light: not shown
# notes: EU numbering; copies: 2 + 2
# B25: IgG1-F719 (antibody)
# heavy: B1 heavy with P240D, W288N, P310V, N327G
# light: not shown
# notes: EU numbering; copies: 2 + 2
# B26: IgG1-F724 (antibody)
# heavy: B1 heavy with P240D, W288N, P310V, L330E
# light: not shown
# notes: EU numbering; copies: 2 + 2
# B27: IgG1-F681 (antibody)
# heavy: B1 heavy with W288N, K290A
# light: not shown
# notes: EU numbering; copies: 2 + 2
# B28: IgG1-F705 (antibody)
# heavy: B1 heavy with W288E, M430I
# light: not shown
# notes: EU numbering; copies: 2 + 2
# B29: IgG1-F715 (antibody)
# heavy: B1 heavy with P240D, W288N, P310V, N327M
# light: not shown
# notes: EU numbering; copies: 2 + 2
# B30: IgG1-F684 (antibody)
# heavy: B1 heavy with W288N, K290F
# light: not shown
# notes: EU numbering; copies: 2 + 2
# B31: IgG1-F725 (antibody)
# heavy: B1 heavy with L237K, G239R, S241K, W288N
# light: not shown
# notes: EU numbering; copies: 2 + 2
# B32: IgG1-F716 (antibody)
# heavy: B1 heavy with P240D, W288N, P310V, N327L
# light: not shown
# notes: EU numbering; copies: 2 + 2
# B33: IgG1-F686 (antibody)
# heavy: B1 heavy with W288N, K290H
# light: not shown
# notes: EU numbering; copies: 2 + 2
# B34: IgG1-F745 (antibody)
# heavy: B1 heavy with P240D, T252G, W288N, P310V
# light: not shown
# notes: EU numbering; copies: 2 + 2
# B35: IgG1-F696 (antibody)
# heavy: B1 heavy with W288N, K290Y
# light: not shown
# notes: EU numbering; copies: 2 + 2
# B36: IgG1-F690 (antibody)
# heavy: B1 heavy with W288N, K290N
# light: not shown
# notes: EU numbering; copies: 2 + 2
# B37: IgG1-F739 (antibody)
# heavy: B1 heavy with W288N, T309P, P310V, Q313A
# light: not shown
# notes: EU numbering; copies: 2 + 2
# B38: IgG1-F708 (antibody)
# heavy: B1 heavy with W288E, T309Q, Q313A, M430I
# light: not shown
# notes: EU numbering; copies: 2 + 2
# B39: IgG1-F734 (antibody)
# heavy: B1 heavy with G238D, W288N, P310V, L330E
# light: not shown
# notes: EU numbering; copies: 2 + 2
# B40: IgG1-F680 (antibody)
# heavy: B1 heavy with W288Y
# light: not shown
# notes: EU numbering; copies: 2 + 2
# B41: IgG1-F698 (antibody)
# heavy: B1 heavy with W288E, T309Q, P310V, Q313A
# light: not shown
# notes: EU numbering; copies: 2 + 2
# B42: IgG1-F731 (antibody)
# heavy: B1 heavy with Y254M, W288N, T309A, P310V, Q313H
# light: not shown
# notes: EU numbering; copies: 2 + 2
# B43: IgG1-F736 (antibody)
# heavy: B1 heavy with S269M, W288N, P310V, L330E
# light: not shown
# notes: EU numbering; copies: 2 + 2
# B44: IgG1-F711 (antibody)
# heavy: B1 heavy with S241K, W288N, T309Q, P310V, Q313A
# light: not shown
# notes: EU numbering; copies: 2 + 2
# B45: IgG1-F687 (antibody)
# heavy: B1 heavy with W288N, K290I
# light: not shown
# notes: EU numbering; copies: 2 + 2
# B46: IgG1-F700 (antibody)
# heavy: B1 heavy with W288N, L330E
# light: not shown
# notes: EU numbering; copies: 2 + 2
# B47: IgG1-F726 (antibody)
# heavy: B1 heavy with L237K, P240K, S241K, W288N
# light: not shown
# notes: EU numbering; copies: 2 + 2
# B48: IgG1-F714 (antibody)
# heavy: B1 heavy with P240D, W288N, P310V, N327S
# light: not shown
# notes: EU numbering; copies: 2 + 2
# B49: IgG1-F744 (antibody)
# heavy: B1 heavy with P240D, T252F, W288N, P310V
# light: not shown
# notes: EU numbering; copies: 2 + 2
# B50: IgG1-F741 (antibody)
# heavy: B1 heavy with P240D, T252A, W288N, P310V
# light: not shown
# notes: EU numbering; copies: 2 + 2
# B51: IgG1-F718 (antibody)
# heavy: B1 heavy with P240D, W288N, Q297M, P310V
# light: not shown
# notes: EU numbering; copies: 2 + 2
# B52: IgG1-F682 (antibody)
# heavy: B1 heavy with W288N, K290D
# light: not shown
# notes: EU numbering; copies: 2 + 2
# B53: IgG1-F737 (antibody)
# heavy: B1 heavy with S269L, W288N, P310V, L330E
# light: not shown
# notes: EU numbering; copies: 2 + 2
# B54: IgG1-F720 (antibody)
# heavy: B1 heavy with W288N, T309Q, Q313A
# light: not shown
# notes: EU numbering; copies: 2 + 2
# B55: IgG1-F706 (antibody)
# heavy: B1 heavy with W288E, T309Q, P310V, Q313A, M430I
# light: not shown
# notes: EU numbering; copies: 2 + 2
# B56: IgG1-F709 (antibody)
# heavy: B1 heavy with S241K, W288E, T309Q, P310V, Q313A, M430I
# light: not shown
# notes: EU numbering; copies: 2 + 2
# B57: IgG1-F689 (antibody)
# heavy: B1 heavy with W288N, K290M
# light: not shown
# notes: EU numbering; copies: 2 + 2
# B58: IgG1-F890 (antibody)
# heavy: B1 heavy with W288N, P310V, Y438V
# light: not shown
# notes: copies: 2 + 2
# B59: IgG1-F746 (antibody)
# heavy: B1 heavy with P240D, T252H, W288N, P310V
# light: not shown
# notes: EU numbering; copies: 2 + 2
# Target: T1, human FcRn (soluble human FcRn complexed with β2-microglobulin) (human, UniProt P61769 21-119, limits assumed)
# T1 construct: also called hFcRn
# Assay: SPR, pH 7.0;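 further: antibodies captured on a Protein L sensor chip with human FcRn injected as analyte, KD calculated from fitted association and dissociation rate constants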
row,Kd [nM],Binder
1,17,B1
2,28,B2
3,31,B3
4,53,B4
5,350,B5
6,15,B6
7,39,B7
8,23,B8
9,290,B9
10,320,B10
11,600,B11
12,36,B12
13,920,B13
14,50,B14
15,680,B15
16,260,B16
17,320,B17
18,47,B18
19,40,B19

row,Kd [nM],Binder
1,15,B20
2,5.9,B21
3,280,B22
4,60,B23
5,20,B24
6,74,B25
7,250,B26
8,49,B27
9,7.1,B28
10,230,B29
11,51,B30
12,42,B31
13,270,B32
14,46,B33
15,660,B34
16,44,B35
17,100,B36
18,220,B37
19,4.1,B38

row,Kd [nM],Binder
1,310,B39
2,15,B40
3,22,B41
4,850,B42
5,310,B43
6,65,B44
7,49,B45
8,52,B46
9,37,B47
10,230,B48
11,990,B49
12,310,B50
13,280,B51
14,82,B52
15,310,B53
16,24,B54
17,18,B55
18,20,B56
19,41,B57

# Target: T2, soluble human FcRn complexed with β2-microglobulin (human, UniProt P61769 21-119, limits assumed)
# T2 construct: also called hFcRn
# Assay: Biacore SPR, pH 7.0;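 further: test antibodies captured on a Protein L chip with human FcRn flowed over as analyte, KD obtained as the ratio of dissociation to association rate constants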
row,Kd [nM],Binder
1,110,B58
2,600,B59
